According to patent publication US20040233833A1, “Methods for identifying compounds with thrapeutic potential for treatment of central Neurodegenerative diseases resulting from abnormal protein or peptide accumulation” (priority 2001, published 2004):

Experiments:
[1] = molecular target: 20S proteasome (human red blood cell proteasomes) (human); assay: competition assay with REGα(N146Y)/REGβ(N135Y) as competitor for the proteasome
[2] = molecular target: 20S proteasome (human red blood cell proteasomes) (human); assay: cell-based or functional assay

REGγ (wild-type), sequence (P61289 whole entry): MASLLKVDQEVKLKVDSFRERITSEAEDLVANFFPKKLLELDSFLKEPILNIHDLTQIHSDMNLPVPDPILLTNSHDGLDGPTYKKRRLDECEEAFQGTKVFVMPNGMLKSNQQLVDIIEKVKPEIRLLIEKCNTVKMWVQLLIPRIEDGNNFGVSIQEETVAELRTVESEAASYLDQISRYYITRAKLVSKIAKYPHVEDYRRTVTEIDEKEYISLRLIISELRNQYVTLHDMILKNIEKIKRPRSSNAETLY

| Substance | Relative affinity for proteasome (% of wild-type REGγ) [1] | also measured |
| --- | --- | --- |
| REGγ (wild-type) (from UniProt P61289 1-254) | 100 | half-life of the 49-residue peptide BBC1 with the proteasome [2]: 45 min; rate of CT/PGPH labeling by 125I-YL3-VS, fold over proteasome alone [2]: 4.4 fold; rate of T-subunit labeling by 125I-YL3-VS, fold over proteasome alone [2]: 4.7 fold |
| REGγ(K188A) (from UniProt P61289 1-254) | 60 | – |
| REGγ(K188C) (from UniProt P61289 1-254) | 60 | – |
| REGγ(K188H) (from UniProt P61289 1-254) | 50 | – |
| REGγ(K188I) (from UniProt P61289 1-254) | 60 | – |
| REGγ(K188P) (from UniProt P61289 1-254) | 40 | – |
| REGγ(K188Q) (from UniProt P61289 1-254) | 75 | – |
| REGγ(K188S) (from UniProt P61289 1-254) | 50 | – |

More lines, main results first:

| Relative affinity for proteasome (% of wild-type REGγ) [1] | Substance | also measured |
| --- | --- | --- |
| 0 | REGα (from UniProt Q06323 1-249) | – |
| 90 | REGγ(K188D) (from UniProt P61289 1-254) | – |
| 90 | REGγ(K188E) (from UniProt P61289 1-254) | rate of CT/PGPH labeling by 125I-YL3-VS, fold over proteasome alone [2]: 11.9 fold; rate of T-subunit labeling by 125I-YL3-VS, fold over proteasome alone [2]: 10.8 fold |
| 40 | REGγ(K188F) (from UniProt P61289 1-254) | – |
| 75 | REGγ(K188N) (from UniProt P61289 1-254) | – |
| 75 | REGγ(K188R) (from UniProt P61289 1-254) | – |
